Reference: the supplement of paper PMC12042874
± gives the uncertainty stated by the source.

Assay: amyloid nucleation score (Sup35N fusion, yeast selection) (log enrichment); library NNK1; higher = more nucleation; inactive = no reads after selection
In short: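 Plasmid inserts were Illumina-sequenced at input and output from psi-negative yeast expressing Sup35N fused to peptides of 20 random codons. The yeast were induced with 100 μM copper sulfate for 24 hours and grown 7 days at 30°C on medium lacking adenine and uracil, and sequences with under 100 input reads were excluded. Nucleation score is the DiMSum log enrichment of output over input reads, centred on the mode score of non-aggregating sequences.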
In the case of YNLDDILPLHIEGRFNRDIA, the amyloid nucleation score is reported as “inactive”. YNLDSLLIWWVIDC showed an amyloid nucleation score of -0.22 ± 1.1. For YNLYS, the amyloid nucleation score was -0.626 ± 1.1. In the case of YNPGG, the amyloid nucleation score is reported as -0.248 ± 0.26. Work on YNRDRECWRIS yielded an amyloid nucleation score of 1.17 ± 0.53. Substance YNSETSPVCYELTCESFCIV has an amyloid nucleation score of -1.23 ± 2.4. For YNTDWPLHLTADVGVFY, the amyloid nucleation score was -0.088 ± 1.1. In the case of YNWYPEWLCYIFRTKQVVGT, the amyloid nucleation score is reported as 0.382 ± 0.45. YNYVG showed an amyloid nucleation score of -1.29 ± 2.7. Substance YPIYIVWVFIVITICVANDS has an amyloid nucleation score of -0.072 ± 0.31. For YPNYFSVRFSNWLASTKFQI, the amyloid nucleation score was “inactive”. Work on YPSVADRHAILHR yielded an amyloid nucleation score of 0.219 ± 0.74. In the case of YPTPLQVFVRSRFDRRI, the amyloid nucleation score is reported as -0.132 ± 0.26. Substance YPYNWSPYEAASIVAVQNYQ has an amyloid nucleation score of -1.44 ± 1.5. For YQFGLEKSMLGRGY, the amyloid nucleation score was 0.36 ± 0.41. Work on YQLWPQASMKMCD yielded an amyloid nucleation score of 0.258 ± 0.4. YRAKSSEGL showed an amyloid nucleation score of -0.631 ± 0.71. YRHSDANKHLGGAIQF showed an amyloid nucleation score of -0.519 ± 0.53. YRLKRINCGHVGHYMEDIRR showed an amyloid nucleation score of -0.099 ± 0.29. Substance YRVFASNCEFYSRCKYLYLL has an amyloid nucleation score of 0.029 ± 1.6. In the case of YRVLELFYFV, the amyloid nucleation score is reported as “inactive”. Work on YRWSVCCLLVMFWLYDGALL yielded an amyloid nucleation score of -0.156 ± 0.8. For YRWVFKCRCRSPGGESKSSR, the amyloid nucleation score was 5.9 ± 0.097. YSCWFKHRTALPIGSEGMTR showed an amyloid nucleation score of 0.708 ± 0.53. With YSHYNGTVAYRWEPQ the amyloid nucleation score was 0.901 ± 0.47. With YSIFILRSAWMMRRIEMSTA the amyloid nucleation score was -0.252 ± 0.45. Work on YSLEFSSFMLFLTCLVSYNY yielded an amyloid nucleation score of -0.457 ± 0.4. YSLFAGIG showed an amyloid nucleation score of 0.735 ± 0.85. Substance YSLWFLRYSRNGSMRDLLRF has an amyloid nucleation score of -0.447 ± 0.39. YSMIPKITSKP showed an amyloid nucleation score of 0.028 ± 0.29. Work on YSNRWNYWVYVFGQVF yielded an amyloid nucleation score of -0.437 ± 0.42. In the case of YSNWGHVSRWFLRFIVVFFI, the amyloid nucleation score is reported as 0.459 ± 0.64. For YSPDLSRASFCFLWYISSS, the amyloid nucleation score was “inactive”. With YSRWER the amyloid nucleation score was -0.565 ± 0.39. YSSERTLLALVGT showed an amyloid nucleation score of -0.21 ± 0.51. YSVDKIAYFGINKCRTVLWE gave an amyloid nucleation score of 1.09 ± 0.52. YSYVVCYNFYKRV gave an amyloid nucleation score of 3.86 ± 0.14. In the case of YTAMFCNSVLHADGLPQLMG, the amyloid nucleation score is reported as -0.033 ± 0.97. Work on YTASMTIFLDLLP yielded an amyloid nucleation score of 2.07 ± 0.15. For YTCCWTVG, the amyloid nucleation score was 4.18 ± 0.08. With YTGIPRSS the amyloid nucleation score was 0.203 ± 0.28. YTIEYTSITVIVCGILYNT showed an amyloid nucleation score of 6.932 ± 0.05. YTLFWNVEGNLWQTPSVCNL showed an amyloid nucleation score of 0.141 ± 0.95. YTMMCGISQRQLTKRRPTLW gave an amyloid nucleation score of -0.205 ± 0.52. Work on YTSSFVKDGKHWSRSKTGVY yielded an amyloid nucleation score of -0.569 ± 0.73. In the case of YTSTIKYLVYNN, the amyloid nucleation score is reported as -1.08 ± 0.94. YTWMSIEIY showed an amyloid nucleation score of 1.71 ± 0.4. For YVASLYQYFYLLIKIDCVFF, the amyloid nucleation score was -0.824 ± 0.97. YVFNFLIMLLLGVA showed an amyloid nucleation score of -0.665 ± 0.32. YVHLYDDCTIGSTRAEGRGY showed an amyloid nucleation score of 0.777 ± 1.2. YVIDGPSLSTCLVRV gave an amyloid nucleation score of 0.839 ± 0.5. Work on YVLSLYTNGRSPSA yielded an amyloid nucleation score of 0.203 ± 0.56. YVLTCFAELGGRRGVS showed an amyloid nucleation score of -0.531 ± 1.4. With YVRDGVPSWMQCYLRGSFGG the amyloid nucleation score was 0.208 ± 0.72. Substance YVVNYYNRQSIGCFVWTWRR has an amyloid nucleation score of 8.169 ± 0.05. YVWVGADDFFYRGYVFSRLV gave an amyloid nucleation score of -0.212 ± 1.4. With YVYNMFRL the amyloid nucleation score was 2.88 ± 0.14. Work on YVYWR yielded an amyloid nucleation score of -1.82 ± 2.7. For YWCNYVIVMSCKWG, the amyloid nucleation score was “inactive”. Substance YWFCNRIGIVGIVLSGYLCL has an amyloid nucleation score of -0.154 ± 0.26. Work on YWGYKTGQDCFSHSIRRRIL yielded an amyloid nucleation score of -0.105 ± 0.85. YWIDR gave an amyloid nucleation score of -0.281 ± 0.42. Work on YWRCCQVCRLRMDPQYFPDG yielded an amyloid nucleation score of -0.358 ± 0.69. YWVILFPITIWSVKTSVGNH showed an amyloid nucleation score of 1.7 ± 0.31. Work on YYDSGVSPAVQSPECSTSGA yielded an amyloid nucleation score of 0.186 ± 0.93. For YYFKRNTCCAAVLKHPFPVS, the amyloid nucleation score was 0.019 ± 0.99. Work on YYFSVYQFCGGVFGSRDCLE yielded an amyloid nucleation score of 6.711 ± 0.05. In the case of YYGNTRWLDYMPLL, the amyloid nucleation score is reported as “inactive”. YYIRNYVRFRRS gave an amyloid nucleation score of -0.797 ± 0.48. YYIVVCR gave an amyloid nucleation score of 0.932 ± 0.97. Substance YYLQDDTWGLKFNPIVSTCF has an amyloid nucleation score of 1.13 ± 0.54. Substance YYLSVNR has an amyloid nucleation score of -0.116 ± 0.67. With YYMTIFERFSLHFTMGLNLG the amyloid nucleation score was 0.752 ± 0.56. For YYRGCTWLAYPEERTALPRM, the amyloid nucleation score was 0.208 ± 0.27. For YYSVGYGTYLTEFLCGNLRG, the amyloid nucleation score was 0.989 ± 0.35. YYWIYVIPSIFSIF gave an amyloid nucleation score of 5.5 ± 0.088. YYWVFCFFA showed an amyloid nucleation score of 7.47 ± 0.079. With YYYVWNFGGWIGFRNVVSIR the amyloid nucleation score was 0.05 ± 0.98.
